Assay [1] deals with Flag-tagged SisArnB (vWA domain protein) expressed in S. islandicus (Saccharolobus islandicus REY15A). As to the kind of experiment: co-IP; in vivo pull-down: Flag-ArnB or Flag-ArnE precipitated with anti-Flag magnetic beads from sonicated S. islandicus cell extract in buffer A (50 mM Tris-HCl pH 7.5, 150 mM NaCl, 5% glycerol); SisArnA detected by Western blot with anti-SisArnA; cells untreated or treated with 3 µM NQO for 6 h.

Assay [2] addresses Flag-tagged SisArnE (vWA domain protein SisvWA2) expressed in S. islandicus (Saccharolobus islandicus REY15A). The assay is described as above.

For the substance “SisArnA, FHA domain-containing protein from Saccharolobus islandicus REY15A (endogenous) (natural protein)”, in assay [1], the amount of SisArnA pulled down after NQO treatment, percent of the untreated sample was 40% and the fold of the SisArnA-ArnE interaction, normal growth conditions worked out at 9 fold. In assay [2], this substance showed an amount of SisArnA pulled down after NQO treatment, fold of the untreated sample of 3 fold.

These data come from PMC10470591.
